Assay results published in publication PMC9811221 (The Journal of Biological Chemistry, 2022).

B1: VHH20 (VHH)
VHH: EVQLVESGGGSVQAGGSLRLSCVASGIAFSESPMAWYRQAPGRQREFVADVSADNKPYYRDTLKGRFTISRDNDKNSVYLQMNFLQPEDTAVYYCNALLLEAGTIKNYWGQGTQVTVSS
notes: TEV-cleavable tag
B2: VHH13 (VHH)
VHH: EVQLVESGGGLVQPGGSLRLSCAASGSTFSINAMGWYRQAPGKQRELVAAISSGGSTNYADSVKGRFTISRDNAKNTVYLQMNSLKPEDTAVYYCNTINIGTFISLGGSPLGSWGQGTQVTVSS
notes: TEV-cleavable tag
B3: VHH17 (VHH)
VHH: EVQLVESGGGLVQAGGSLRLSCAASGRTFSAYAMGWFRQAPGKERELVAGISWSGGMTYYADSVKGRFTISRDNAKNMVYLQMNSLKAEDTAVYYCAGGFSAVVPDHPDEYHYWGQGTQVTVSS
notes: TEV-cleavable tag
B4: VHH9 (VHH)
VHH: QVQLVESGGKLVQAGGSLRLSCAASGRSIVPYAMGWFRQAPGKEREFVAVIDWSGFRTYYADSVKGRFTISRDNAKNTVYLEMSSLKPEDTAVYYCAQAGYGLGYRIHANEYHYWGQGTQVTVSS
notes: TEV-cleavable tag; source: E. coli BL21(DE3), soluble, purified (Ni-NTA, gel filtration)
B5: VHH15 (VHH)
VHH: EVQLVESGGGLVQAGGSLRLSCAASGRTSSIYVMAWFRQAPGKERELVAAISTSGNTVYPNSVKGRFTISRDNAKSTVYLQMNSLKPEDTAVYFCNADRTTYSSGRYSSQDYWGQGTQVTVSS
notes: TEV-cleavable tag
B6: VHH16 (VHH)
VHH: QVQLVESGGGWVQTGGSLRLSCAASGSTFDIKRMAWYRQAPGKEREFVADIWSEGSTHYADSVKGRFTISRDSAKNTMYLQMNSLKPEDTAAYYCNVGNTWGQGTQVTVSS
notes: TEV-cleavable tag; CDR 1 and 2 identical to VHH18, CDR 3 distinct
B7: VHH19 (VHH)
VHH: EVQLVESGGGSVQAGASLRLSCAASGFPFSHYAIGWFRQAPGKEREFVTSIDRSGINTYYADSVKGRFTISRDNAKNAVSLQMNSLKPDDTAVYYCAAGPRLVTSPELYPYWGQGTQVTVSS
notes: TEV-cleavable tag
B8: VHH18 (VHH)
VHH: EVQLVESGGGWVQTGGSLRLSCAASGSTFDIKRMAWYRQAPGKEREFVADIWSEGSTHYADSVKGRFTISRDSAKNTMYLYMNSLKPEDTAVYYCNVEYVLRTYWGQGTQVTVSS
notes: TEV-cleavable tag; CDR 1 and 2 identical to VHH16, CDR 3 distinct
B9: VHH21 (VHH)
VHH: EVQLVESGGGLVQTGGSLRLSCAASGRTFDSYFMGWFRQAPGKEREFVAAISGSGSLTSYEDGVKGRFTISRDNAKNTVSLQMTNLKPEDTAVYYCASCLSCAFINGRQVDSRYYNYWGQGTQVTVSS
notes: TEV-cleavable tag; Two cysteines within CDR 3 form an additional disulfide bond (confirmed by mass spectrometry)
B10: VHH10 (VHH)
VHH: EVQLVESGGGLVQAGDSLRLSCAASGRAFSGYAMAWFRQAPEKEREFVAAITWRGGTPYYAVRAKGRFTISRDSAKNTAYLEVNSLKPEDTATYYCAAPSLQVATMDVKDYAYWGQGTLVTVSS
notes: TEV-cleavable tag
B11: VHH4 (VHH)
VHH: EVQLVESGGGLVQAGDSLRLSCTASGRNFIIYTLAWFRQAPGKEREFVAGISWSGGSTKYADPVKGRFTISRDNAKNTVYLQMNSLHSDDTGVYYCGAQRGATIDLKYGMESWGKGTQVTVSS
notes: TEV-cleavable tag
B12: VHH22 (VHH)
VHH: EVQLVESGGGLVQAGGSLKLSCAASGRTFSGNTMGWFRQAPGKERELVTVVSSGGSTYYSDSVKGRFTISRDNALNTVYLQMNSLKPEDTAVYYCAAASLISGLTTTRRLFDYWGQGTQVTVSS
notes: TEV-cleavable tag
B13: VHH14 (VHH)
VHH: EVQLVESGGGLVQAGDSLRLSCTASARTFIKYAMGWFRQAPGKEREFVAAISWSGSRTTYADSVKGRFTISRDNDKNTVYLQMNTLEPEDTAIYYCAKAKGGYHSSQYDYDYWGQGTQVTVSS
notes: TEV-cleavable tag
B14: VHH2 (VHH)
VHH: QVQLVESGGGSVQPGGSLRLSCAASGSIVGHAVQAWYRQAPGKQRDLVAQLFDNGKTNIADSVKGRFTISGDNAKNTFYLQMNNLKPEDTAIYYCAILILPSMGVPPNIYEGQGTQVTVSS
notes: TEV-cleavable tag; source: E. coli BL21(DE3), purified (Ni-NTA, gel filtration)
B15: extracellular region of CD80 (residues 35-235) (domain or fragment, human, UniProt P33681 35-235, looked up)
chain: VIHVTKEVKEVATLSCGHNVSVEELAQTRIYWQKEKKMVLTMMSGDMNIWPEYKNRTIFDITNNLSIVILALRPSDEGTYECVVLKYEKDAFKREHLAEVTLSVKADFPTPSISDFEIPTSNIRRIICSTSGGFPEPHLSWLENGEELNAINTTVSQDPETELYAVSSKLDFNMTTNHSFMCLIKYGHLRVNQTFNWNTTK
notes: CD80 (Cluster of differentiation 80, B7-1), human; construct 1-235 with the native signal peptide; final purified protein holds residues 35 to 235 after signal peptide cleavage; Glycosylated form; also called B7-1; source: expiCHO cells with kifunensine, secreted, purified (Ni-NTA, gel filtration)
B16: VHH4 (VHH)
VHH: B11 VHH
notes: The His6 tag is TEV-cleavable; also called anti-PD-L1 VHH 4
B17: VHH9 (VHH)
VHH: B4 VHH
notes: The His6 tag is TEV-cleavable; also called anti-PD-L1 VHH 9; source: E. coli BL21(DE3), soluble expression, purified (Ni-NTA, gel filtration)
B18: VHH15 (VHH)
VHH: B5 VHH
notes: The His6 tag is TEV-cleavable; also called anti-PD-L1 VHH 15

Target: T1, PD-L2-Fc (Generon) (Homo sapiens (assumed), UniProt Q9BQ51)
T1 construct: PD-L2 (programmed cell death 1 ligand 2), extracellular region; No catalogue number printed; also called extracellular region of PD-L2 with a Fc tag; source: bought: Generon
Assay: BLI; PD-L2-Fc (2 ug/ml) on Protein G biosensors; VHHs at 10 uM; 25 C
Details: both partners purified

T1 sequence (Q9BQ51 20-220): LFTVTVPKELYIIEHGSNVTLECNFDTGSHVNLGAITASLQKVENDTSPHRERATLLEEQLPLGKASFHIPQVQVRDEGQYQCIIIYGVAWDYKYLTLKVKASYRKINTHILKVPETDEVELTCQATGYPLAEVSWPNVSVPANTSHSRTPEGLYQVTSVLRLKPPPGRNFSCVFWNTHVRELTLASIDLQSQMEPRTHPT

| Binder | binding result |
| --- | --- |
| B1 | no binding (tested: 10 μM) |
| B2 | no binding (tested: 10 μM) |
| B3 | no binding (tested: 10 μM) |
| B4 | no binding (tested: 10 μM) |
| B5 | no binding (tested: 10 μM) |
| B6 | no binding (tested: 10 μM) |
| B7 | no binding (tested: 10 μM) |
| B8 | no binding (tested: 10 μM) |
| B9 | no binding (tested: 10 μM) |
| B10 | no binding (tested: 10 μM) |
| B11 | no binding (tested: 10 μM) |
| B12 | no binding (tested: 10 μM) |
| B13 | no binding (tested: 10 μM) |
| B14 | no binding (tested: 10 μM) |

Target: T2, PD-L1 D1 (residues 18-134) (human, UniProt Q9NZQ7 18-134)
T2 construct: PD-L1 (programmed death-ligand 1, B7-H1, CD274), human, IgV-like domain D1, residues 18-134; Uniformly 15N/13C labelled for NMR; the sentence on constructs can be read as giving a C-terminal avitag to this construct too; also called PD-L D1
Assay: NMR titration; chemical shift perturbation (minimal shift) mapping: labelled PD-L1 D1 free and with a 60% molar excess of CD80; 15N/1H TROSY; 25 C; 25 mM KH2PO4 pH 7.4, 25 mM NaCl, 10 uM EDTA
Details: both partners purified

T2 sequence (Q9NZQ7 18-134): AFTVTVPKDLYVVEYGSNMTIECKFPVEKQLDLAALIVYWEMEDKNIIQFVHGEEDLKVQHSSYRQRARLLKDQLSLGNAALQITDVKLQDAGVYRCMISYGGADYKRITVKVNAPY

| Binder | binding result |
| --- | --- |
| B15 | binds |

Target: T3, PD-L1 D1D2 (residues 18-237) (human, UniProt Q9NZQ7)
T3 construct: PD-L1 (programmed death-ligand 1, B7-H1, CD274), human, extracellular region D1D2, residues 18-237; also called extracellular region of PD-L1
Assay: BLI; biotinylated avitagged PD-1 (5 ug/ml) on streptavidin biosensors; 3 uM PD-L1 D1D2 alone or with 20 uM VHH; 25 C
Details: both partners purified

T3 sequence (Q9NZQ7 18-237): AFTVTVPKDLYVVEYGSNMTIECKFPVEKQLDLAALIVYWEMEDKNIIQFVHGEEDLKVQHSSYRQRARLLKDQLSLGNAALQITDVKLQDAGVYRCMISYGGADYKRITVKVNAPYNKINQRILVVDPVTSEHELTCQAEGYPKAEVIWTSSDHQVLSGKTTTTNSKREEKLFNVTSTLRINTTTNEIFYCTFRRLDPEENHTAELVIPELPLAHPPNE

| Binder | percent inhibition of PD-L1 D1D2 binding to PD-1 at 20 uM VHH |
| --- | --- |
| B1 | > 90% |
| B2 | > 90% |
| B3 | > 90% |
| B4 | > 90% |
| B5 | > 90% |
| B6 | > 90% |
| B7 | > 90% |
| B8 | > 90% |
| B9 | > 90% |
| B10 | > 90% |
| B11 | > 90% |
| B12 | > 90% |
| B13 | > 90% |
| B14 | > 90% |

Target: T4, PD-L1-Fc fusion protein (Homo sapiens, UniProt Q9NZQ7)
T4 construct: PD-L1 (programmed cell death 1 ligand 1, B7-H1, CD274) part of a bought PD-L1-Fc fusion protein; Probably the extracellular region; Held on Protein G biosensors by the Fc; also called programmed death-ligand 1; B7-H1; source: bought: Invitrogen
Assay: BLI; PD-L1-Fc (5 ug/ml) loaded on Protein G biosensors, VHH in solution (10 uM to 0.3 nM); Octet QKe, 25 °C, PBS pH 7.4, 0.01% Tween-20, 0.1% BSA; kinetic analysis, global model 'association kinetics' in Prism 9
Details: both partners purified

T4 sequence (Q9NZQ7 19-238): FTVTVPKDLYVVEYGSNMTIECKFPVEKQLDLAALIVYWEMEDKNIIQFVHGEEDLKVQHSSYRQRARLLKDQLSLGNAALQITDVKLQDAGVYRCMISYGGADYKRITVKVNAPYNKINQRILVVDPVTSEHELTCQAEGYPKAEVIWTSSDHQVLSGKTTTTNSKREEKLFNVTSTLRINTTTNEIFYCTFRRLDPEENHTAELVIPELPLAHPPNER

| Binder | Kd | koff | kon |
| --- | --- | --- | --- |
| B16 | 48 nM | 0.029 s⁻¹ | 590000 M⁻¹ s⁻¹ |

Target: T4, PD-L1-Fc fusion protein
Assay: BLI; PD-L1-Fc (5 ug/ml) loaded on Protein G biosensors, VHH in solution (10 uM to 0.3 nM); Octet QKe, 25 °C, PBS pH 7.4, 0.01% Tween-20, 0.1% BSA; steady-state analysis of the maximum responses, one-site specific-binding model in Prism 9
Details: both partners purified

| Binder | Kd |
| --- | --- |
| B17 | 0.7 nM |
| B18 | 9.2 nM |
| B16 | 59 nM |
